The results in this text go back to the Immune Epitope Database (IEDB).

In general, Kd refers to a measure of binding affinity in units of concentration. A lower Kd goes with tighter binding.

Some results are limits rather than exact numbers.

For experiment [1], the target named is HLA-A*02:12. Kind of experiment: IEDB peptide-MHC binding, purified MHC/direct/fluorescence; filed as Kd, often an IC50 or EC50 that approximates it; ≥ and ≤ were set here for values at or beyond the usual limits of such assays.
The next experiment deals with HLA-B*48:01. The description is as above. To be noted: source organism: Orthohantavirus andesense.
Experiment [2] has as its target HLA-A*02:01. The description is as above. To be noted: source organism: Orthohantavirus andesense.
Experiment [3] deals with HLA-A*24:03. Described as above. To be noted: source organism: Limestone Canyon virus.
In another experiment the target is HLA-A*31:01. Described as above. To be noted: source organism: Orthohantavirus andesense.
Experiment [4] concerns the target HLA-A*02:19. Described as above.
The target in experiment [5] is HLA-A*68:02. The experiment is described as above. To be noted: source organism: Limestone Canyon virus.
The target in another experiment is HLA-B*07:02. The description is as above. To be noted: source organism: Orthohantavirus andesense.
Experiment [6] concerns the target HLA-B*15:01. The description is as above. To be noted: source organism: Orthohantavirus andesense.
The target in a further experiment is HLA-B*40:01. The description is as above. To be noted: source organism: Orthohantavirus andesense.
A further experiment deals with HLA-A*03:01. The description is as above.
The next experiment has as its target HLA-A*01:01. The experiment is described as above. To be noted: source organism: Orthohantavirus andesense.
The target in a further experiment is HLA-A*23:01. The description is as above. To be noted: source organism: Limestone Canyon virus.
For another experiment, the target named is HLA-A*11:01. The experiment is described as above. To be noted: source organism: Orthohantavirus andesense.
Experiment [7] concerns the target HLA-B*46:01. Described as above. To be noted: source organism: Orthohantavirus andesense.
For experiment [8], the target named is HLA-B*57:01. Described as above. To be noted: source organism: Orthohantavirus andesense.
Another experiment addresses HLA-B*58:01. The description is as above. To be noted: source organism: Orthohantavirus andesense.
The next experiment has as its target HLA-B*08:01. Described as above. To be noted: source organism: Hantavirus Monongahela-3.
Experiment [9] concerns the target HLA-A*69:01. The experiment is described as above. To be noted: source organism: Orthohantavirus andesense.
The target in another experiment is HLA-B*44:02. The experiment is described as above. To be noted: source organism: Orthohantavirus andesense.
A further experiment addresses HLA-B*27:05. The description is as above. To be noted: source organism: Orthohantavirus andesense.
The next experiment has as its target HLA-A*29:02. The description is as above. To be noted: source organism: Orthohantavirus andesense.
The target in experiment [10] is HLA-B*18:01. The description is as above. To be noted: source organism: Orthohantavirus andesense.
The next experiment deals with HLA-B*39:01. Description: IEDB peptide-MHC binding, purified MHC/competitive/fluorescence; filed as Kd, often an IC50 or EC50 that approximates it; ≥ and ≤ were set here for values at or beyond the usual limits of such assays.
The target of another experiment is HLA-B*15:17. The experiment is described as above.
The target of another experiment is HLA-A*26:01. The experiment is described as above.
A further experiment deals with HLA-B*27:03. The experiment is described as above.
In experiment [11] the target is HLA-A*68:02. Described as above.
Experiment [12] has as its target HLA-A*02:12. Described as above. To be noted: source organism: Vibrio vulnificus YJ016.
Experiment [13] concerns the target HLA-A*02:01. The experiment is described as above.
For experiment [14], the target named is HLA-A*24:03. The description is as above.
Experiment [15] deals with HLA-A*02:19. The description is as above. To be noted: source organism: Vibrio vulnificus YJ016.
The target in experiment [16] is HLA-B*15:01. Described as above. To be noted: source organism: Vibrio vulnificus YJ016.
Experiment [17] deals with HLA-B*46:01. Described as above.
The target of experiment [18] is HLA-B*57:01. The experiment is described as above.
The target in the next experiment is HLA-B*51:01. The description is as above.
Experiment [19] concerns the target HLA-A*02:03. The description is as above. To be noted: source organism: Vibrio vulnificus YJ016.
Experiment [20] deals with HLA-A*69:01. The experiment is described as above.
The target in experiment [21] is HLA-B*18:01. The description is as above.
The next experiment concerns the target HLA-A*02:11. Kind of experiment: IEDB peptide-MHC binding, purified MHC/direct/fluorescence; filed as Kd, often an IC50 or EC50 that approximates it; ≥ and ≤ were set here for values at or beyond the usual limits of such assays. To be noted: source organism: Choclo virus.
For a further experiment, the target named is HLA-A*02:16. The description is as above. To be noted: source organism: Choclo virus.
For experiment [22], the target named is HLA-A*02:03. The description is as above. To be noted: source organism: Choclo virus.
[23] abbreviates: source organism: Limestone Canyon virus.
Where [24] appears, read: source organism: Four Corners hantavirus.
[25] abbreviates: source organism: Vibrio vulnificus YJ016.

As for EKLKKKSAF, the Kd with HLA-A*02:12 [1] (setting [23]), with HLA-B*48:01, with HLA-A*02:01 [2], with HLA-A*24:03 [3], with HLA-A*31:01 and in the experiment with HLA-A*02:19 [4] (setting [23]) was no less than 20 µM in each case. Also, the Kd with HLA-A*68:02 [5], in the experiment with HLA-B*07:02, with HLA-B*15:01 [6], in the experiment with HLA-B*40:01, with HLA-A*03:01 (source organism: Orthohantavirus andesense) and with HLA-A*01:01 was no less than 20 µM throughout. Also, the Kd with HLA-A*23:01 was no less than 20 µM; with HLA-A*11:01 it was no less than 20 µM; in the experiment with HLA-B*46:01 [7], no less than 20 µM; with HLA-B*57:01 [8] it was no less than 20 µM; with HLA-B*58:01 it was no less than 20 µM; in the experiment with HLA-B*08:01, no less than 5 µM. Besides, the Kd in the experiment with HLA-A*69:01 [9], in the experiment with HLA-B*44:02, in the experiment with HLA-B*27:05, with HLA-A*29:02, in the experiment with HLA-B*18:01 [10] and with HLA-B*39:01 (setting [24]) was no less than 20 µM throughout. Moreover, the Kd in the experiment with HLA-B*15:17 (setting [24]), in the experiment with HLA-A*26:01 (setting [24]) and with HLA-B*27:03 (setting [24]) was no less than 20 µM throughout.

ESAEVEVYV displayed a Kd with HLA-A*68:02 [11] (setting [25]) of no more than 0.0001 µM.

For the sequence GMWCVLASR, the Kd with HLA-A*02:12 [12] is 0.93 µM; with HLA-A*02:01 [13] (setting [25]), no less than 20 µM; with HLA-A*24:03 [14] (setting [25]), no less than 20 µM; with HLA-B*39:01 (setting [25]), no less than 20 µM; with HLA-A*02:19 [15], no less than 20 µM; in the experiment with HLA-A*68:02 [11] (setting [25]), no less than 20 µM. Further, the Kd with HLA-B*15:01 [16], in the experiment with HLA-B*46:01 [17] (setting [25]), with HLA-B*15:17 (setting [25]), with HLA-B*57:01 [18] (setting [25]), with HLA-B*51:01 (setting [25]) and with HLA-A*02:03 [19] was no less than 20 µM in each case. Moreover, the Kd with HLA-A*69:01 [20] (setting [25]), in the experiment with HLA-A*26:01 (setting [25]), with HLA-B*27:03 (setting [25]) and with HLA-B*18:01 [21] (setting [25]) was no less than 20 µM in each case.

As for HWMDATFNI, the dissociation constant (Kd) with HLA-A*02:12 [1] (source organism: Choclo virus), in the experiment with HLA-A*02:19 [4] (source organism: Choclo virus), with HLA-A*03:01 (source organism: Choclo virus), with HLA-A*02:11, in the experiment with HLA-A*02:16 and with HLA-A*02:03 [22] was no less than 20 µM in each case. Besides, the Kd with HLA-A*02:01 [13] (source organism: Choclo virus) was no less than 20 µM; with HLA-A*24:03 [14] (source organism: Choclo virus), no more than 0.0001 µM; with HLA-B*39:01 (source organism: Choclo virus), no less than 20 µM; with HLA-B*46:01 [17] (source organism: Choclo virus), no less than 20 µM; with HLA-B*15:17 (source organism: Choclo virus) it was no less than 20 µM; with HLA-B*57:01 [18] (source organism: Choclo virus), no less than 20 µM. Moreover, the Kd with HLA-B*51:01 (source organism: Choclo virus), with HLA-A*69:01 [20] (source organism: Choclo virus), in the experiment with HLA-A*26:01 (source organism: Choclo virus), in the experiment with HLA-B*27:03 (source organism: Choclo virus) and with HLA-B*18:01 [21] (source organism: Choclo virus) was no less than 20 µM in each case.

STYWLMAGL had a Kd with HLA-A*68:02 [11] (source organism: Yersinia pestis Nepal516) of 0.0005 µM.
